Source: patent publication US20100028342A1 (published 2010)
Where “and” joins values, the source holds several entries; their conditions need not be identical. Equal values may be shown once.

Legend:
[1] = target: T1, recombinant mouse IGF-IR (mIGF-IR) (mouse, UniProt Q60751 31-933, limits assumed); assay: ELISA on immobilized recombinant mouse IGF-IR
T1 construct: also called mIGF-ER

[2] = target: T2, native human IGF-IR on human tumor cells (human, UniProt P08069 31-1367); assay: competition: blocking of IGF-I binding to MCF7 cells (breast)
T2 construct: whole, on cells; also called native IGF-IR; endogenous cellular IGF-IR
Protocol: (§1) The anti-IGF-IR antibodies were tested for blocking of radiolabeled ligand binding to native IGF-IR on human tumor cells (FIG. 1C). Assay conditions were performed according to Arteaga and Osborne (Cancer Res. 49:6237-41 (1989)), with minor modifications. MCF7 human breast cancer cells were seeded into 24 well dishes, and cultured overnight. Sub-confluent monolayers were washed 2-3 times in binding buffer (Iscove's Medium/0.1% BSA) and antibody added in binding buffer. […] The wells were then washed three times with ice-cold PBS/0.1% BSA. Monolayers were then lysed with 200 μl 0.5N NaOH and counted in a gamma counter.

[3] = target: T2, native human IGF-IR on human tumor cells; assay: competition: blocking of IGF-I binding to T47D cells (breast)
[4] = target: T2, native human IGF-IR on human tumor cells; assay: competition: blocking of IGF-I binding to 8226 cells (myeloma)
[5] = target: T2, native human IGF-IR on human tumor cells; assay: competition: blocking of IGF-I binding to OV90 cells (ovarian)
[6] = target: T2, native human IGF-IR on human tumor cells; assay: competition: blocking of 125I-IGF-I binding to IGF-IR on MCF7 cells
Protocol: as §1

[7] = target: T2, native human IGF-IR on human tumor cells; assay: competition: blocking of IGF-I binding to HPAC cells (pancreatic)
[8] = target: T2, native human IGF-IR on human tumor cells; assay: competition: blocking of IGF-I binding to BXPC3 cells (pancreatic)
[9] = target: T2, native human IGF-IR on human tumor cells; assay: competition: blocking of IGF-I binding to HT-29 cells (colorectal)
[10] = target: T2, native human IGF-IR on human tumor cells; assay: competition: blocking of IGF-I binding to SK-ES1 cells (Ewing sarcoma)

T1 sequence (Q60751 31-933 limits assumed): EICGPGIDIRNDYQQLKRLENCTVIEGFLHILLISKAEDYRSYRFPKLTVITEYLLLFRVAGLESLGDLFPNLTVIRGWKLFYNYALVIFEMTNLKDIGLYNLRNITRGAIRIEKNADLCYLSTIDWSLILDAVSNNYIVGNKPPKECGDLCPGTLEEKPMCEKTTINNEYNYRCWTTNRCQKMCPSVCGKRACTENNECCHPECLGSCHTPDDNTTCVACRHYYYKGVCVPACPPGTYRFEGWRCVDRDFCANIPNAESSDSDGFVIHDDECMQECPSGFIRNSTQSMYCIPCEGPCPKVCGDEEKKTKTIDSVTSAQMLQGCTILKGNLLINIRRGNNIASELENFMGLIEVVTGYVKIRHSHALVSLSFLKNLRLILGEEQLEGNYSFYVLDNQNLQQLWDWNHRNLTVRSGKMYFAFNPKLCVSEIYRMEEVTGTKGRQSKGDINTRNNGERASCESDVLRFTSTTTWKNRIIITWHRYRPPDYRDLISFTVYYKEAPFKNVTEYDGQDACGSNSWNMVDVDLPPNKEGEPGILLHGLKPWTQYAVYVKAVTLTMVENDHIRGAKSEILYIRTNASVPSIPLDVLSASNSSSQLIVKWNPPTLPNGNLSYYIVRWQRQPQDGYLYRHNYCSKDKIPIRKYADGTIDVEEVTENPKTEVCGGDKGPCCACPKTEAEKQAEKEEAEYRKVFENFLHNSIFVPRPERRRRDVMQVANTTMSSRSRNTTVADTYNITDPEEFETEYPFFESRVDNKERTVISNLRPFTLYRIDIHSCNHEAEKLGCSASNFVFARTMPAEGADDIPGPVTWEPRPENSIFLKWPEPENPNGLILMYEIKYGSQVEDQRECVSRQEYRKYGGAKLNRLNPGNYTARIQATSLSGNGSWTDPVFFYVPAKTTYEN

B1: antibody A12 (fully human IgG1 anti-IGF-IR antibody) (antibody, V domains shown)
VH: EVQLVQSGAEVKKPGSSVKVSCKASGGTFSSYAISWVRQAPGQGLEWMGGIIPIFGTANYAQKFQGRVTITADKSTSTAYMELSSLRSEDTAVYYCARAPLRFLEWSTQDHYYYYYMDVWGKGTTVTVSS
VL: SSELTQDPAVSVALGQTVRITCQGDSLRSYYATWYQQKPGQAPILVIYGENKRPSGIPDRFSGSSSGNTASLTITGAQAEDEADYYCKSRDGSGQHLVFGGGTKLTVLG
notes: also called A12 IgG
B1 was tested, and the EC50 [1] was 0.3 to 0.5 nM, the IC50 [2] was 3 nM and the IC50 [3] was 6 nM. For the same binder, the IC50 [4] was 20 nM, the IC50 [5] was 6 nM and the IC50 [6] was 0.45 µg/mL. It also gave an IC50 [7] of 10 nM, an IC50 [8] of 20 nM and an IC50 [9] of 10 nM. The IC50 [10] was 2 nM.

B2: antibody 2F8 (fully human IgG1 anti-IGF-IR antibody) (antibody, V domains shown)
VH: B1 VH
VL: SSELTQDPAVSVALGQTVRITCQGDSLRSYYASWYQQKPGQAPVLVIYGKNNRPSGIPDRFSGSSSGNTASLTITGAQAEDEADYYCNSRDNSDNRLIFGGGTKLTVLS
notes: also called 2F8 IgG
For B2, the IC50 [6] was 30 nM and 4.5 µg/mL.
